Reference: US20210171647A1 (WUXI BIOLOGICS SHANGHAI, published 2021)
Positions count from the first letter of the chain named.

Columns and labels:
Assay in all cases: ELISA, antibody coated, OX40-ECD.His mutant supernatant; relative to silent alanine substitutions;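 also: captured OX40 mutant protein detected with HRP-labelled anti-His antibody, absorbance read-out, scaled to the mean signal of control mutants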
human OX40-ECD.His P37A = target: T1, human OX40-ECD.His P37A (human, UniProt P43489 29-214)
T1 construct: extracellular domain; not shown: C-terminal His-tag
T1 sequence (looked up): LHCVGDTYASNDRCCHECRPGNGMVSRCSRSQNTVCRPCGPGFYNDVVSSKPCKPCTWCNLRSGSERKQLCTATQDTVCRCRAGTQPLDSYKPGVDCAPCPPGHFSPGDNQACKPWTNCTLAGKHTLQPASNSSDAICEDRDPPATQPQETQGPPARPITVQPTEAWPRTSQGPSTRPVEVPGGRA

human OX40-ECD.His D124A = target: T2, human OX40-ECD.His D124A (human, UniProt P43489 29-214)
T2 construct: extracellular domain; not shown: C-terminal His-tag
T2 sequence (looked up): T1 sequence (looked up) with A9P, D96A

human OX40-ECD.His P69A = target: T3, human OX40-ECD.His P69A (human, UniProt P43489 29-214)
T3 construct: extracellular domain; not shown: C-terminal His-tag
T3 sequence (looked up): T1 sequence (looked up) with A9P, P41A

human OX40-ECD.His G68A = target: T4, human OX40-ECD.His G68A (human, UniProt P43489 29-214)
T4 construct: extracellular domain; not shown: C-terminal His-tag
T4 sequence (looked up): T1 sequence (looked up) with A9P, G40A

human OX40-ECD.His N39A = target: T5, human OX40-ECD.His N39A (human, UniProt P43489 29-214)
T5 construct: extracellular domain; not shown: C-terminal His-tag
T5 sequence (looked up): T1 sequence (looked up) with A9P, N11A

human OX40-ECD.His D104A = target: T6, human OX40-ECD.His D104A (human, UniProt P43489 29-214)
T6 construct: extracellular domain; not shown: C-terminal His-tag
T6 sequence (looked up): T1 sequence (looked up) with A9P, D76A

human OX40-ECD.His V76A = target: T7, human OX40-ECD.His V76A (human, UniProt P43489 29-214)
T7 construct: extracellular domain; not shown: C-terminal His-tag
T7 sequence (looked up): T1 sequence (looked up) with A9P, V48A

human OX40-ECD.His T102A = target: T8, human OX40-ECD.His T102A (human, UniProt P43489 29-214)
T8 construct: extracellular domain; not shown: C-terminal His-tag
T8 sequence (looked up): T1 sequence (looked up) with A9P, T74A

human OX40-ECD.His L98A = target: T9, human OX40-ECD.His L98A (human, UniProt P43489 29-214)
T9 construct: extracellular domain; not shown: C-terminal His-tag
T9 sequence (looked up): T1 sequence (looked up) with A9P, L70A

human OX40-ECD.His L89A = target: T10, human OX40-ECD.His L89A (human, UniProt P43489 29-214)
T10 construct: extracellular domain; not shown: C-terminal His-tag
T10 sequence (looked up): T1 sequence (looked up) with A9P, L61A

B1: 1.134.9-u1-IgG1L (antibody, V domains shown)
VH: QVQLQESGPGLVKPSGTLSLTCAVSGGSISSYNWWSWVRQPPGKGLEWIGEIYHGGNTNYNPSLKSRVTMSVDNSKNQFSLKLSSVTAADTAVYYCARAPGDWGGSPYFDFWGQGTLVTVSS
VL: SSELTQDPAVSVALGQTVRITCQGDNLRTYYASWYQQKPGQAPILLIYGRNKRPSGIPDRFSGSSSGNTASLTITGAQAEDEAAYYCNSRDSSGNPVVFGGGTKLTVL
notes: fully human IgG1, lambda
Which “Fold Change” value (human OX40-ECD.His P37A) does the source give for B1 here?
Its value is 1.01.

And the “Fold Change” value (human OX40-ECD.His D124A)?
Its value is 0.989.

What about the “Fold Change” value (human OX40-ECD.His P69A) of the same binder?
The value was 0.987.

And the “Fold Change” value (human OX40-ECD.His G68A)?
The value was 0.998.

And the “Fold Change” value (human OX40-ECD.His N39A)?
The value was 0.988.

What about the “Fold Change” value (human OX40-ECD.His D104A) of the same binder?
Its value is 0.692.

What about the “Fold Change” value (human OX40-ECD.His V76A) of the same binder?
The value was 1.02.

And the “Fold Change” value (human OX40-ECD.His T102A)?
The value was 0.94.

And the “Fold Change” value (human OX40-ECD.His L98A)?
Its value is 1.01.

And the “Fold Change” value (human OX40-ECD.His L89A)?
The value was 0.992.
